Results: patent US20170137511A1 (CALYPSO BIOTECH, published 2017)
Where a chain is given by its changes, count along the chain named.

B1: huB-E29-3 (antibody, human IgG1, kappa, V domains shown)
VH: EVRLMASGGGLVQPGGSLRLSCAASEFTFSNYAMSWVRQAPGKGLEWVSTISRGGDYTYYPDSVKGRFTISRDNSKNTLYLQMNSLRAEDTAVYYCARRVSMITGGWAMDYWGQGTLVTVSS
VL: DVVMTQSPLSLPVTLGQPASISCRSSQSIVDITGNTYLEWYQQRPGQSPRLLIYKVFNRFSGVPDRFSGSGSGTDFTLKISRVEAEDVGVYYCFQDSFVPYTFGQGTKLEIKR
notes: Humanized B-E29 variant; human IgG1 (G1m3) / kappa (Km3), produced in CHO cells; also called huVH3/huVL1
B2: huB-E29-24 (antibody, human IgG1, kappa, V domains shown)
VH: B1 VH with R3Q, M5V, A6E, S49A, W107Y
VL: B1 VL
notes: Humanized B-E29 variant; human IgG1 (G1m3) / kappa (Km3), produced in CHO cells; also called huVH18/huVL1
B3: huB-E29-16 (antibody, human IgG1, kappa, V domains shown)
VH: B1 VH with S49A, D62E
VL: B1 VL
notes: Humanized B-E29 variant; human IgG1 (G1m3) / kappa (Km3), produced in CHO cells; also called huVH14/huVL1
B4: huB-E29-34 (antibody, human IgG1, kappa, V domains shown)
VH: B1 VH with S49A, D62E, M102F, W107Y
VL: B1 VL with Y41F, L51R, D96E
notes: Humanized B-E29 variant; human IgG1 (G1m3) / kappa (Km3), produced in CHO cells; also called huVH21/huVL6
B5: huB-E29-8 (antibody, human IgG1, kappa, V domains shown)
VH: B1 VH with S49A, S63T, M102I
VL: B1 VL
notes: Humanized B-E29 variant; human IgG1 (G1m3) / kappa (Km3), produced in CHO cells; also called huVH6/huVL1
B6: huB-E29-6 (antibody, human IgG1, kappa, V domains shown)
VH: B1 VH with S49A, M102L
VL: B1 VL
notes: Humanized B-E29 variant; human IgG1 (G1m3) / kappa (Km3), produced in CHO cells; also called huVH4/huVL1
B7: huB-E29-22 (antibody, human IgG1, kappa, V domains shown)
VH: B1 VH with R3Q, M5V, A6E, S49A, M102F, W107Y, M109F
VL: B1 VL with Y41F, L51R, D96E
notes: Humanized B-E29 variant; human IgG1 (G1m3) / kappa (Km3), produced in CHO cells; also called huVH16/huVL6
B8: huB-E29-31 (antibody, human IgG1, kappa, V domains shown)
VH: B1 VH with S49A, M102F, W107Y
VL: B1 VL with Y41F, L51R, D96E
notes: Humanized B-E29 variant; human IgG1 (G1m3) / kappa (Km3), produced in CHO cells; also called huVH20/huVL6
B9: huB-E29-14 (antibody, human IgG1, kappa, V domains shown)
VH: B1 VH with S49A, M109F
VL: B1 VL
notes: Humanized B-E29 variant; human IgG1 (G1m3) / kappa (Km3), produced in CHO cells; also called huVH12/huVL1
B10: huB-E29-7 (antibody, human IgG1, kappa, V domains shown)
VH: B1 VH with S49A, D62E, M102F
VL: B1 VL
notes: Humanized B-E29 variant; human IgG1 (G1m3) / kappa (Km3), produced in CHO cells; also called huVH5/huVL1
B11: huB-E29-18 (antibody, human IgG1, kappa, V domains shown)
VH: B1 VH with S49A
VL: B1 VL with D96E
notes: Humanized B-E29 variant; human IgG1 (G1m3) / kappa (Km3), produced in CHO cells; also called huVH1/huVL4
B12: huB-E29-9 (antibody, human IgG1, kappa, V domains shown)
VH: B1 VH with S49A, S63T, M102A
VL: B1 VL
notes: Humanized B-E29 variant; human IgG1 (G1m3) / kappa (Km3), produced in CHO cells; also called huVH7/huVL1
B13: huB-E29-15 (antibody, human IgG1, kappa, V domains shown)
VH: B1 VH with S49A, M109I
VL: B1 VL
notes: Humanized B-E29 variant; human IgG1 (G1m3) / kappa (Km3), produced in CHO cells; also called huVH13/huVL1
B14: huB-E29-11 (antibody, human IgG1, kappa, V domains shown)
VH: B1 VH with S49A, S63T, W107F
VL: B1 VL
notes: Humanized B-E29 variant; human IgG1 (G1m3) / kappa (Km3), produced in CHO cells; also called huVH9/huVL1
B15: huB-E29-17 (antibody, human IgG1, kappa, V domains shown)
VH: B1 VH with S49A, S63T
VL: B1 VL
notes: Humanized B-E29 variant; human IgG1 (G1m3) / kappa (Km3), produced in CHO cells; also called huVH15/huVL1
B16: huB-E29-13 (antibody, human IgG1, kappa, V domains shown)
VH: B1 VH with S49A, M109L
VL: B1 VL
notes: Humanized B-E29 variant; human IgG1 (G1m3) / kappa (Km3), produced in CHO cells; also called huVH11/huVL1
B17: huB-E29-19 (antibody, human IgG1, kappa, V domains shown)
VH: B1 VH with S49A
VL: B1 VL with S97T
notes: Humanized B-E29 variant; human IgG1 (G1m3) / kappa (Km3), produced in CHO cells; also called huVH1/huVL5
B18: huB-E29-12 (antibody, human IgG1, kappa, V domains shown)
VH: B1 VH with S49A, S63T, W107A
VL: B1 VL
notes: Humanized B-E29 variant; human IgG1 (G1m3) / kappa (Km3), produced in CHO cells; also called huVH10/huVL1
B19: huB-E29-30 (antibody, human IgG1, kappa, V domains shown)
VH: B1 VH with S49A, M102F, W107Y
VL: B1 VL
notes: Humanized B-E29 variant; human IgG1 (G1m3) / kappa (Km3), produced in CHO cells; also called huVH20/huVL1
B20: huB-E29-5 (antibody, human IgG1, kappa, V domains shown)
VH: B1 VH with S49A
VL: B1 VL with L51R
notes: Humanized B-E29 variant; human IgG1 (G1m3) / kappa (Km3), produced in CHO cells; also called huVH1/huVL3

What was measured:
[1] = biological target: T1, recombinant human IL-15 (Prospec cat no. CYT230) (human, UniProt P40933 49-162); assay: ELISA, plate-bound human IL-15; printed as BC50 (half-maximal binding concentration)
Description: (§1) Maxisorp plates were coated with recombinant human IL-15 (Prospec cat no. CYT230) or Rhesus macaque IL-15 (MyBiosource cat. no. MBS948894) at 100 ng/well in carbonate coating buffer for 2 hours at 37° C. Since published sequences of Rhesus macaque and Cynomolgus monkey IL-15 are identical, such recombinant IL-15 protein was referred to as Macaque Monkey IL-15. Tested human IL-15 recombinant protein has a sequence identical to that provided in SEQ ID NO: 1 but with an additional methionine at the N-terminal position as usually done for expressing recombinant proteins in E. Coli. Tested recombinant Macaque Monkey IL-15 was produced in yeast and has a sequence identical to that provided in SEQ ID NO: 4 but with an additional N-terminal His tag.
(§2) The plate was then blocked with 2% normal goat serum for 30 min at 37° C. and washed 6 times with PBS-Tween (0.05% Tween-20 in PBS, v/v). Test antibodies were added to the plate in triplicate at various dilutions in PBS-Tween and the plate was incubated with gentle rocking at room temperature for 2 hours. The plate was then washed 6 times with PBS-Tween and an appropriate dilution of goat anti-human IgG antibody (Millipore cat. no. AP309P) conjugated to horseradish peroxidase (HRP) was added to the plate and left rocking at room temperature for 1 hour. The plate was then washed 6 times with PBS-Tween and incubated with TMB substrate. The reaction was stopped by the addition of 1M H₂SO₄ and read at 450 nm. Dose response curves of absorbance versus concentration were plotted and analyzed to determine half-maximal binding concentrations (BC₅₀) using the Graphpad Prism software. BC₅₀ values expressed as molarity were extrapolated from concentration in ng/ml using a 150 kDa molecular weight value for all antibodies.

[2] = biological target: T2, recombinant rat IL-15 (Sigma cat. no. SRP4172) (rat, UniProt P97604 49-162); assay: ELISA, plate-bound recombinant rat IL-15 (100 ng/well), HRP goat anti-human IgG, absorbance at 450 nm
T2 sequence: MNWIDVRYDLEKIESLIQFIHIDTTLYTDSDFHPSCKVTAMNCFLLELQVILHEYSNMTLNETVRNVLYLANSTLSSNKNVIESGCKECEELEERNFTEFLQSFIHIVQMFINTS
Description: (§3) Maxisorp plates were coated with recombinant mouse IL-15 (R&D Systems cat. no. 447-ML) or rat IL-15 (Sigma cat. no. SRP4172) at 100 ng/well in carbonate coating buffer for 2 hours at 37° C. Tested IL-15 recombinant proteins have a sequence identical to that provided in SEQ ID NO: 2 (mouse IL-15) and SEQ ID NO: 3 (rat IL-15) but with an additional methionine at the N-terminal position as usually done for expressing recombinant proteins in E. Coli.
(§4) The plate was then blocked with 2% normal goat serum for 30 min at 37° C. and washed 6 times with PBS-Tween (0.05% Tween-20 in PBS, v/v). Test antibodies were added to the plate in triplicate at various dilutions in PBS-Tween and the plate was incubated with gentle rocking at room temperature for 2 hours. As positive controls, rabbit-anti-mouse IL-15 (Acris cat. no. AP01124PU-S) or rabbit anti-rat IL-15 (Biovision cat. no. 5172) antibodies were tested at the same concentrations. The plate was then washed 6 times with PBS-Tween and an appropriate dilution of HRP-conjugated goat anti-human IgG antibody (Millipore cat. no. AP309P) for humanized antibodies, or goat-anti-rabbit IgG antibody (Sigma cat. no. A 4416) for the positive controls was added and the plate was left rocking at room temperature for 1 hour. The plate was then washed 6 times with PBS-Tween and incubated with TMB substrate. The reaction was stopped by the addition of 1M H₂SO₄ and read at 450 nm. Dose response curves of absorbance versus concentration were plotted using the Graphpad Prism software.

[3] = biological target: T3, recombinant human IL-15 (R&D systems cat. no. 247-IL) (human, UniProt P40933 49-162); assay: cell-based or functional assay
[4] = biological target: T4, recombinant Macaque Monkey IL-15 (MyBiosource cat. no. MBS948894) (Rhesus macaque / Cynomolgus monkey, UniProt P40221 49-162 (Chlorocebus aethiops entry)); assay: cell-based or functional assay
[5] = biological target: T4, recombinant Macaque Monkey IL-15 …; assay: ELISA, plate-bound Macaque Monkey IL-15; printed as BC50 (half-maximal binding concentration)
Description: as §1, §2

[6] = biological target: T1, recombinant human IL-15 (Prospec cat …); assay: SPR (Biacore 3000), human IL-15 amine-coupled to the chip, antibody injected, 1:1 Langmuir fit
Description: Human IL-15 (Prospec cat no. CYT230) was immobilized onto a CMS chip (GE Healthcare) using standard amine coupling, and antibodies injected at various concentrations in 120 μl phosphate buffer saline with a flow rate of […]. Binding kinetics were analyzed on a Biacore 3000 apparatus (GE Healthcare) with a 300 seconds dissociation period. Reference signal and 0 nM antibody concentration signal were substracted and data fitted using a 1:1 (Langmuir) binding model.

[7] = biological target: T3, recombinant human IL-15 (R&D systems …); assay: cell-based or functional assay; remark: listed apart in the source
[8] = biological target: T5, recombinant mouse IL-15 (R&D Systems cat. no. 447-ML) (mouse, UniProt P48346 49-162); assay: ELISA, plate-bound recombinant mouse IL-15 (100 ng/well), HRP goat anti-human IgG, absorbance at 450 nm
T5 sequence: T2 sequence with F19S, I82A, R95K, N96T, H106R
Description: as §3, §4

T1 sequence (P40933 other isoform, or with tags, fused parts or gaps): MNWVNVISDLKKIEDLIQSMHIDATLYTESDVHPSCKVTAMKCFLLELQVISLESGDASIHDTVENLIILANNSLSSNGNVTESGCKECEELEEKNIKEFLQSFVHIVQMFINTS
T3 sequence (P40933 49-162 limits assumed): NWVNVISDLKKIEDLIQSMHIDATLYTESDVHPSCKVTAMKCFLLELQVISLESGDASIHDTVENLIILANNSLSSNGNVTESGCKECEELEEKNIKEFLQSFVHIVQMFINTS
T4 sequence (P40221 49-162): as the sequence (P40933 49-162 limits assumed) above, with L52H, A57T, S58D, S73I, V80I counted along it

Binder | EC50 [1] | other results
B1 | 2.62 nM | –
B2 | 0.647 nM | binding result [2]: no binding (tested: log 3.7 (about 5000 ng/mL)); IC50 in Kit 225 cells (nM), Human IL-15 [3]: 29.3 nM; IC50 in M-07e cells (nM), Human IL-15 [3]: 19.1 nM; IC50 in Kit 225 cells (nM), Macaque Monkey IL-15 [4]: 26.7 nM; IC50 in M-07e cells (nM), Macaque Monkey IL-15 [4]: 10.4 nM; EC50 [5]: 0.113 nM; Kd [6]: 0.329 nM; koff [6]: 0.000574 s⁻¹; kon [6]: 1.75e+06 M⁻¹ s⁻¹; IC50 in M07e cells for IL-15 trans presentation [7]: 0.65 nM; binding result [8]: no binding (tested: log 3.7 (about 5000 ng/mL))
B3 | 2.01 nM | –
B4 | 3.89 nM | –
B5 | 1.79 nM | –
B6 | 1.84 nM | –
B7 | 3.87 nM | –
B8 | 3.51 nM | –
B9 | 0.813 nM | EC50 [5]: 0.347 nM
B10 | 0.84 nM | EC50 [5]: 0.433 nM
B11 | 0.693 nM | EC50 [5]: 0.367 nM
B12 | 1.99 nM | –
B13 | 2.53 nM | –
B14 | 0.98 nM | –
B15 | 2.61 nM | –
B16 | 3.17 nM | –
B17 | 2.21 nM | –
B18 | 0.593 nM | –
B19 | 5.87 nM | –
B20 | 1.47 nM | EC50 [5]: 0.453 nM
